Laboratory results published in patent publication US20030068675, “Position dependent recognition of GNN nucleotide triplets by zinc fingers” (published 2003).
Changes are numbered by the printed parent chain.

How the values were obtained:
Test in all cases: EMSA
Conditions in all cases: tags: MBP fusion
ZFP SBS#1227 = ZFP SBS#1227 (synthetic)
How it was run: (§1)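 Purified ZFP was titrated against labeled double-stranded target (1 nM or lower, at least 10-fold below expected Kd) carrying the natural binding site with flanks. Binding buffer was 10 mM Tris pH 7.5, 100 mM KCl, 1 mM MgCl2, 0.1 mM ZnCl2, 5 mM DTT, 10% glycerol, 0.02% BSA, with equilibration for at least 45 min. Bound and free target were separated on a 10% polyacrylamide gel.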

ZFP SBS#1224 = biological target: T1, ZFP SBS#1224 (synthetic)
T1 chain: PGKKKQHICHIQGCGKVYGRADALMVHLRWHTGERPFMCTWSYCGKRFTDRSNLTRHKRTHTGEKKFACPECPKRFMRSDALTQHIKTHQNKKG
How it was run: as §1

ZFP SBS#1141 = biological target: T2, ZFP SBS#1141 (synthetic)
T2 chain: T1 chain with A21G, M25T, V26S
How it was run: as §1

ZFP SBS#1223 = biological target: T3, ZFP SBS#1223 (synthetic)
T3 chain: T1 chain with A21S, M25T, V26K
How it was run: as §1

ZFP SBS#1218 = ZFP SBS#1218 (synthetic)
How it was run: as §1

ZFP SBS#1116 = biological target: T4, ZFP SBS#1116 (synthetic)
T4 chain: T1 chain with A21S, A23E, M25T, V26R, D50Q, R51S, T55V, A81E, T83R, Q84E
How it was run: as §1

ZFP SBS#1209 = biological target: T5, ZFP SBS#1209 (synthetic)
T5 chain: T1 chain with A21S, A23E, M25T, V26R, D50Q, R51S, T55V, A81T, T83R, Q84E
How it was run: as §1

ZFP SBS#1222 = biological target: T6, ZFP SBS#1222 (synthetic, UniProt P08047)
T6 chain: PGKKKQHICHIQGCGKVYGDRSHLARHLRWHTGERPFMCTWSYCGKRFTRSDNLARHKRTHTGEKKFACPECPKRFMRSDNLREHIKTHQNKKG
How it was run: as §1

ZFP SBS#1140 = ZFP SBS#1140 (synthetic)
How it was run: as §1

ZFP SBS#1229 = biological target: T7, ZFP SBS#1229 (synthetic)
T7 chain: T1 chain with A21S, A23E, M25T, V26R, D50M, R51S, S52H, N53H, T55S, A81N
How it was run: as §1

ZFP SBS#1233 = biological target: T8, ZFP SBS#1233 (synthetic)
T8 chain: T1 chain with A21S, M25R, V26E, A81H, Q84T
How it was run: as §1

ZFP SBS#1232 = biological target: T9, ZFP SBS#1232 (synthetic)
T9 chain: T1 chain with A21S, M25R, V26E, A81H, Q84T
How it was run: as §1

ZFP SBS#1207 = biological target: T10, ZFP SBS#1207 (synthetic)
T10 chain: T6 chain with D20Q, S22A, A25E, R50T, D52G, N53E, A55V
How it was run: as §1

ZFP SBS#1108 = biological target: T11, ZFP SBS#1108 (synthetic)
T11 chain: T6 chain with D20Q, R21S, S22G, R50T, D52G, N53E, A55V
How it was run: as §1

ZFP SBS#938 = ZFP SBS#938 (synthetic, UniProt P08047)
How it was run: as §1

ZFP SBS#937 = ZFP SBS#937 (synthetic)
How it was run: as §1

ZFP SBS#1215 = ZFP SBS#1215 (synthetic, UniProt P08047)
How it was run: as §1

ZFP SBS#1238 = biological target: T12, ZFP SBS#1238 (synthetic)
T12 chain: T6 chain with D20Q, R21S, H23A, R50T, D52G, A55V, N81A
How it was run: as §1

ZFP SBS#1213 = biological target: T13, ZFP SBS#1213 (synthetic)
T13 chain: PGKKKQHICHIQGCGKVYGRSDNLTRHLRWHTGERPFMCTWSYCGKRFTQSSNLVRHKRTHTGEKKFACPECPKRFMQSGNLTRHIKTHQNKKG
How it was run: as §1

ZFP SBS#1217 = ZFP SBS#1217 (synthetic)
How it was run: as §1

ZFP SBS#498 = ZFP SBS#498 (synthetic, UniProt P08047)
How it was run: as §1

ZFP SBS#1150 = ZFP SBS#1150 (synthetic)
How it was run: as §1

ZFP SBS#485 = ZFP SBS#485 (synthetic)
How it was run: as §1

ZFP SBS#487 = biological target: T14, ZFP SBS#487 (synthetic)
T14 chain: T6 chain with D20N, S22A, H23T, R78Q, D80G, N81H, R83A, E84R
How it was run: as §1

ZFP SBS#1220 = ZFP SBS#1220 (synthetic)
How it was run: as §1

ZFP SBS#1221 = ZFP SBS#1221 (synthetic)
How it was run: as §1

ZFP SBS#1219 = ZFP SBS#1219 (synthetic)
How it was run: as §1

ZFP SBS#1139 = biological target: T15, ZFP SBS#1139 (synthetic)
T15 chain: T1 chain with A21S, A23N, M25A, V26R, N53D, A81T
How it was run: as §1

ZFP SBS#1228 = biological target: T16, ZFP SBS#1228 (synthetic)
T16 chain: T1 chain with A21S, A23N, M25A, V26R, N53D, A81D
How it was run: as §1

ZFP SBS#1214 = biological target: T17, ZFP SBS#1214 (synthetic)
T17 chain: T1 chain with R20T, A21T, D22S, M25T, V26R, D50Q, S52A, N53H, T55E
How it was run: as §1

ZFP SBS#1101 = biological target: T18, ZFP SBS#1101 (synthetic)
T18 chain: T1 chain with R20T, A21T, D22S, M25T, V26R, D50Q, S52A, N53H, T55E, T83R
How it was run: as §1

ZFP SBS#1211 = ZFP SBS#1211 (synthetic)
How it was run: as §1

ZFP SBS#1117 = ZFP SBS#1117 (synthetic)
How it was run: as §1

ZFP SBS#1179 = ZFP SBS#1179 (synthetic)
How it was run: as §1

ZFP SBS#1127 = biological target: T19, ZFP SBS#1127 (synthetic)
T19 chain: T6 chain with D20Q, R21S, H23A, N53H, A55T
How it was run: as §1

ZFP SBS#1212 = biological target: T20, ZFP SBS#1212 (synthetic, UniProt P08047)
T20 chain: T6 chain with D20T, R21T, H23A, A25T, N53H, A55T
How it was run: as §1

ZFP SBS#1230 = ZFP SBS#1230 (synthetic)
How it was run: as §1

ZFP SBS#1231 = biological target: T21, ZFP SBS#1231 (synthetic)
T21 chain: T6 chain with H23N, A25T, R50Q, S51R, D52A, N53H, A55E, R83T, E84Q
How it was run: as §1

Sequence of ZFP SBS#1221 (synthetic) (chain, as listed by the source): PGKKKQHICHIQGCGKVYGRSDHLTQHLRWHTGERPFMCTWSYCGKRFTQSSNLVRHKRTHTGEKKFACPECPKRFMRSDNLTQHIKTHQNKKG
Sequence of ZFP SBS#1215 (P08047 other isoform, or with tags, fused parts or gaps): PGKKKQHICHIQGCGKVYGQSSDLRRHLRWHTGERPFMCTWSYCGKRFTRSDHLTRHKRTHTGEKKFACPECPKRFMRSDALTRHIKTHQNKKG
Sequence of ZFP SBS#1220 (synthetic) (chain, as listed by the source): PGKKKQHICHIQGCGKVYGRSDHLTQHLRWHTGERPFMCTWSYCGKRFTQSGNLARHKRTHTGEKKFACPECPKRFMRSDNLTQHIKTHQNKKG
Sequence of ZFP SBS#937 (synthetic) (chain, as listed by the source): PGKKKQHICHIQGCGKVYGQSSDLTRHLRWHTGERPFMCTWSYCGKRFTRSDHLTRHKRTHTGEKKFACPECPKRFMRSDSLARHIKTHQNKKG
Sequence of ZFP SBS#1179 (synthetic) (chain, as listed by the source): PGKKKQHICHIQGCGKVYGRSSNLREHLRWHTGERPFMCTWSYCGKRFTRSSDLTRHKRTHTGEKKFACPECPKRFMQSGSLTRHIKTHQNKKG
Sequence of ZFP SBS#1211 (synthetic) (chain, as listed by the source): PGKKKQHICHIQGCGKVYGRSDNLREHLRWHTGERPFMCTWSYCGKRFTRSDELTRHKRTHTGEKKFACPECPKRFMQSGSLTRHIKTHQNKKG
Sequence of ZFP SBS#1230 (synthetic) (chain, as listed by the source): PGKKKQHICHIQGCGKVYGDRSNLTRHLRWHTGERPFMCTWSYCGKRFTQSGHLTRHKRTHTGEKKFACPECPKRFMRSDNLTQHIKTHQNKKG
Sequence of ZFP SBS#1117 (synthetic) (chain, as listed by the source): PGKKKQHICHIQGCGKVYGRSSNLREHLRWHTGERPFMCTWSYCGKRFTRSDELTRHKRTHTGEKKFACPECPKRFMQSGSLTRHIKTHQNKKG
Sequence of ZFP SBS#485 (synthetic) (chain, as listed by the source): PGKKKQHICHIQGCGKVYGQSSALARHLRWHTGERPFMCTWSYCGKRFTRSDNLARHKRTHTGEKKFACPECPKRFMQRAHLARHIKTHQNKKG
Sequence of ZFP SBS#1218 (synthetic) (chain, as listed by the source): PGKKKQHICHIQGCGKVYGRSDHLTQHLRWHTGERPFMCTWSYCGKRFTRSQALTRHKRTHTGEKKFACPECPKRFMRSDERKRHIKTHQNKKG
Sequence of ZFP SBS#498 (P08047 other isoform, or with tags, fused parts or gaps): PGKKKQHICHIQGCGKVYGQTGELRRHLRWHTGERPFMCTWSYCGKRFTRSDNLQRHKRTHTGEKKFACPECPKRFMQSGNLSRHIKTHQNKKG
Sequence of ZFP SBS#1227 (synthetic) (chain, as listed by the source): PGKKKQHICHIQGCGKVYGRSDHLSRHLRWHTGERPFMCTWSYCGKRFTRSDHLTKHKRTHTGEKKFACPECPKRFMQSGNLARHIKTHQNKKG
Sequence of ZFP SBS#938 (P08047 other isoform, or with tags, fused parts or gaps): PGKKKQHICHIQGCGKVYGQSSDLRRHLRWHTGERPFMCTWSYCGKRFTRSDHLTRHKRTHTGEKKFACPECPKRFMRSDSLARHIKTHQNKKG
Sequence of ZFP SBS#1140 (synthetic) (chain, as listed by the source): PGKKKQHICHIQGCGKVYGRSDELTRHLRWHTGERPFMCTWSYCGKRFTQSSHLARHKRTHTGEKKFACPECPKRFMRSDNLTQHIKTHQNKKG
Sequence of ZFP SBS#1219 (synthetic) (chain, as listed by the source): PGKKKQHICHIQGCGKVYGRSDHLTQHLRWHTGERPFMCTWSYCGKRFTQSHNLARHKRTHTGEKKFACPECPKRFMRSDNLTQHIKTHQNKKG
Sequence of ZFP SBS#1150 (synthetic) (chain, as listed by the source): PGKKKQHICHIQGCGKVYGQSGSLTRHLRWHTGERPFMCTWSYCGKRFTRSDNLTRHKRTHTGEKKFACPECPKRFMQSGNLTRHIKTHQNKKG
Sequence of ZFP SBS#1217 (synthetic) (chain, as listed by the source): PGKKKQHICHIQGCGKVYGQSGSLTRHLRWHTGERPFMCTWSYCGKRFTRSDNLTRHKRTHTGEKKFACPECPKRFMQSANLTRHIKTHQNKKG

B1: GAATAGGGG (dsDNA)
DNA 1: GAATAGGGG
DNA 2: CCCCTATTC
ZFP SBS#1227
  Kd: 25 nM

B2: ATGGACTTG (dsDNA)
DNA 1: ATGGACTTG
DNA 2: CAAGTCCAT
ZFP SBS#1224
  Kd: 12 nM
ZFP SBS#1141
  Kd: 1.7 nM
ZFP SBS#1223
  Kd: 7 nM

B3: GCGGTGAGG (dsDNA)
DNA 1: GCGGTGAGG
DNA 2: CCTCACCGC
ZFP SBS#1218
  Kd: 0.46 nM

B4: CCGGAAGCG (dsDNA)
DNA 1: CCGGAAGCG
DNA 2: CGCTTCCGG
ZFP SBS#1116
  Kd: 12.3 nM
ZFP SBS#1209
  Kd: 19.3 nM

B5: CAGGAGGGC (dsDNA)
DNA 1: CAGGAGGGC
DNA 2: GCCCTCCTG
ZFP SBS#1222
  Kd: 0.155 nM

B6: AAGGGTGCG (dsDNA)
DNA 1: AAGGGTGCG
DNA 2: CGCACCCTT
ZFP SBS#1140
  Kd: 0.3 nM
ZFP SBS#1229
  Kd: 8.2 nM

B7: TGGGACCTG (dsDNA)
DNA 1: TGGGACCTG
DNA 2: CAGGTCCCA
ZFP SBS#1233
  Kd: 0.635 nM
ZFP SBS#1232
  Kd: 0.113 nM

B8: CAGGCTGGA (dsDNA)
DNA 1: CAGGCTGGA
DNA 2: TCCAGCCTG
ZFP SBS#1207
  Kd: 0.45 nM
ZFP SBS#1108
  Kd: 0.007 nM

B9: GTGGGGGCT (dsDNA)
DNA 1: GTGGGGGCT
DNA 2: AGCCCCCAC
ZFP SBS#938
  Kd: 0.049 nM
ZFP SBS#937
  Kd: 0.03 nM
ZFP SBS#1215
  Kd: 0.003 nM

B10: CTGGATGTT (dsDNA)
DNA 1: CTGGATGTT
DNA 2: AACATCCAG
ZFP SBS#1238
  Kd: 0.313 nM

B11: GAAGAAGAG (dsDNA)
DNA 1: GAAGAAGAG
DNA 2: CTCTTCTTC
ZFP SBS#1213
  Kd: 12.3 nM

B12: GAAGAGGCA (dsDNA)
DNA 1: GAAGAGGCA
DNA 2: TGCCTCTTC
ZFP SBS#1217
  Kd: 0.004 nM
ZFP SBS#498
  Kd: 30 nM
ZFP SBS#1150
  Kd: 0.004 nM

B13: GGAGAGGTTT (dsDNA)
DNA 1: GGAGAGGTTT
DNA 2: AAACCTCTCC
ZFP SBS#485
  Kd: 110 nM
ZFP SBS#487
  Kd: 76.9 nM

B14: AAGGAAAGG (dsDNA)
DNA 1: AAGGAAAGG
DNA 2: CCTTTCCTT
ZFP SBS#1220
  Kd: 0.175 nM
ZFP SBS#1221
  Kd: 1.4 nM
ZFP SBS#1219
  Kd: 0.68 nM

B15: ACGGCCGAG (dsDNA)
DNA 1: ACGGCCGAG
DNA 2: CTCGGCCGT
ZFP SBS#1139
  Kd: 0.535 nM
ZFP SBS#1228
  Kd: 12 nM

B16: ATGGGAGTT (dsDNA)
DNA 1: ATGGGAGTT
DNA 2: AACTCCCAT
ZFP SBS#1214
  Kd: 0.46 nM
ZFP SBS#1101
  Kd: 0.065 nM

B17: GCAGCGCAG (dsDNA)
DNA 1: GCAGCGCAG
DNA 2: CTGCGCTGC
ZFP SBS#1211
  Kd: 6.5 nM
ZFP SBS#1117
  Kd: 2.85 nM
ZFP SBS#1179
  Kd: 2.73 nM

B18: CAGGGGGTT (dsDNA)
DNA 1: CAGGGGGTT
DNA 2: AACCCCCTG
ZFP SBS#1127
  Kd: 0.1 nM
ZFP SBS#1212
  Kd: 0.05 nM

B19: AAGGGAGAC (dsDNA)
DNA 1: AAGGGAGAC
DNA 2: GTCTCCCTT
ZFP SBS#1230
  Kd: 0.383 nM
ZFP SBS#1231
  Kd: 0.213 nM
